{"source": "paper PMC9254699", "about": "(2021)", "key": {"[1]": {"target": "T1, TGF-β1 (Homo sapiens, UniProt P01137)", "T1 sequence (P01137 279-390)": "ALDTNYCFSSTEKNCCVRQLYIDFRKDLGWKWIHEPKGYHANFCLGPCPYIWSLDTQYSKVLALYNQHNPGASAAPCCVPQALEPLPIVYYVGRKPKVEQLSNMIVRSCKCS", "assay": "SPR"}, "[2]": {"target": "T1, TGF-β1", "assay": "SPR", "remark": "listed apart in the source"}, "[3]": {"target": "T1, TGF-β1", "assay": "sequestering from PRP by peptide-conjugated microspheres"}, "[4]": {"target": "T1, TGF-β1", "assay": "125I-TGF-β1 sequestering in 10% serum by peptide-conjugated microspheres"}}, "note": "No end group written: not given here."}
{"binder": "CLIDFRIPADREVPI", "note": "[Scrambled RIP]", "values": [{"measurement": "Kd", "setting": "[1]", "result": 745, "unit": "nM"}, {"measurement": "Kd", "setting": "[2]", "result": 765, "unit": "nM"}]}
{"binder": "CIAEIDLIPRDRPF", "values": [{"measurement": "Kd", "setting": "[1]", "result": 183, "unit": "nM"}, {"measurement": "Kd", "setting": "[2]", "result": 106, "unit": "nM"}]}
{"binder": "CIAEIDLIPRDRPF (also: conjugated to PEG microspheres)", "values": [{"measurement": "Kd", "setting": "[3]", "result": "~215", "unit": "nM"}, {"measurement": "Kd", "setting": "[4]", "result": "~211", "unit": "nM"}]}
{"binder": "CIAEIDLIPRDRPFV", "note": "[RIP]", "values": [{"measurement": "Kd", "setting": "[1]", "result": 98.3, "unit": "nM"}, {"measurement": "Kd", "setting": "[2]", "result": 60, "unit": "nM"}]}
